Assay results published in US20220010021A1 (Sanofi, published 2022).

Target: human FGFR1c + KLB receptor complex on HEK293 iLite FGF21 reporter cells (human, UniProt P11362 22-822; Q86Z14 1-1044)
Experiment: cell-based or functional assay

Sequence of human FGFR1c + KLB receptor complex on HEK293 iLite FGF21 reporter cells (P11362 22-822, chain 1 of 2): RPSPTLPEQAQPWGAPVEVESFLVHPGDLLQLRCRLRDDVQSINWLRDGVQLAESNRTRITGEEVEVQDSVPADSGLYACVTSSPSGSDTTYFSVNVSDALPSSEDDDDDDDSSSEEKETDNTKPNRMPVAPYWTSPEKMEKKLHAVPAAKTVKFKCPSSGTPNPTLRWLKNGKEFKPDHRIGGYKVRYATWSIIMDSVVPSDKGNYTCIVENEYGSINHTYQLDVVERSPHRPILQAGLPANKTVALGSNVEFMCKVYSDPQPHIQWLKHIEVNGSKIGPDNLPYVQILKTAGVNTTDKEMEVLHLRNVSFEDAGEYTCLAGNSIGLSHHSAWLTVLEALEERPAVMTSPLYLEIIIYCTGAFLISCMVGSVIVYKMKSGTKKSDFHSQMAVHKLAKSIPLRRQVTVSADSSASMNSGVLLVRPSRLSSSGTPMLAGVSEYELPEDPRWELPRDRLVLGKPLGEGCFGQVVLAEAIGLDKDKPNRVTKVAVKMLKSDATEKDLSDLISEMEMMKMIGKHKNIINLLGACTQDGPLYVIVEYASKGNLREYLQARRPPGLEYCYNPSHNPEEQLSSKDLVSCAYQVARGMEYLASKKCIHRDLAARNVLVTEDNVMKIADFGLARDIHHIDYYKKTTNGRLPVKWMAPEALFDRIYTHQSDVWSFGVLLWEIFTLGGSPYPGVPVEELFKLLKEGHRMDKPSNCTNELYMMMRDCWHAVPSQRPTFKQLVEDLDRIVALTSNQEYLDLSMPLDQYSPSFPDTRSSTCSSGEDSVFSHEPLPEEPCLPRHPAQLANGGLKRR
Sequence of human FGFR1c + KLB receptor complex on HEK293 iLite FGF21 reporter cells (Q86Z14 whole entry, chain 2 of 2): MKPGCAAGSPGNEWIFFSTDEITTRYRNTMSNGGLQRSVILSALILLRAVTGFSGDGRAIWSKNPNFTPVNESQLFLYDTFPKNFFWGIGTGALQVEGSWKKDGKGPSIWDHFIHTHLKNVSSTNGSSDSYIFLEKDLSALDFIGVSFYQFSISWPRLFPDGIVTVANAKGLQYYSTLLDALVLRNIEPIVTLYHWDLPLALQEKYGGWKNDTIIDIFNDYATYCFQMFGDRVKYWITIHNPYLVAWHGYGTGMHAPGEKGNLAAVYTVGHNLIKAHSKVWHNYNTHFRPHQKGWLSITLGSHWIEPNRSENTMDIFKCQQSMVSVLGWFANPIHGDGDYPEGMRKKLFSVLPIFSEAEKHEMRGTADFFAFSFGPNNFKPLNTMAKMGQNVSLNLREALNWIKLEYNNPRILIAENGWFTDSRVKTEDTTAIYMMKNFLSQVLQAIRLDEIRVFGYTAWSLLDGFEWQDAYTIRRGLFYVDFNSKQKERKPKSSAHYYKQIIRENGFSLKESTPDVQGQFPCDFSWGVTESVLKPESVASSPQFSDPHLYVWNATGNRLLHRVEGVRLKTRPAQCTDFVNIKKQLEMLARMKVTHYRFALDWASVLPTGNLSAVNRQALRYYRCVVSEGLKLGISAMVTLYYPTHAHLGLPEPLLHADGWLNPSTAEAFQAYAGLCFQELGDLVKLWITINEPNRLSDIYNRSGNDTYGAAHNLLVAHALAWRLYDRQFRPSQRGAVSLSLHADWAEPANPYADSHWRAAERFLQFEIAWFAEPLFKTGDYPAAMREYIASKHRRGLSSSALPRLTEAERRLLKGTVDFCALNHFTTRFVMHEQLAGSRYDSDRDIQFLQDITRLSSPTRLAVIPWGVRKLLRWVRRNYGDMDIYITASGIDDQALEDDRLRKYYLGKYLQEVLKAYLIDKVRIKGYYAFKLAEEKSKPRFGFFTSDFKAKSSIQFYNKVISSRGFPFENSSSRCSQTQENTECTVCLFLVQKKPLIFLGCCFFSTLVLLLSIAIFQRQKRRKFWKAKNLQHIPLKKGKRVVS

EC50 | Emax | Binder
> 100 nM | – | Ab0404 (antibody, IgG4, V domains shown) VH: QVTLKESGPVLVKPTETLTLTCTVSGFSLNNARVGVSWIRQPPGKALEWLAHIWSNDEKSYSTSLKSRLTISKDTSKSQVVLTMTNMDPVDTATYYCARSVVTGGYYYEGMDVWGQGTTVTVSS VL: SYVLTQPPSVSVAPGQTARITCGGNNIGSESVHWYQQKPGQAPVLVVDDSDRPSGIPERFSGSNSGNTATLTISRVEAGDEADYYCQVFDGNSTHVVFGGGTKLTVLG
10.7 nM | 511% | Ab0349 (antibody, IgG4, V domains shown) VH: QVTLKESGPVLVKPTETLTLTCTVSGFSLNNARVGVSWIRQPPGKALEWLAHIFSNDEKSYSTSLKSRLTISKDTSKSQVVLTMTNMDPVDTATYYCARSVVTGGYYYEGMDVWGQGTTVTVSS VL: SYVLTQPPSVSVAPGQTARITCGGSNIGSESVHWYQQKPGQAPVLVVYEESDRPSGIPERFSGSNSGNTATLTISRVEAGDEADYYCQVWTGSSDHVVFGGGTKLTVLG
0.53 nM | 641% | Ab0348 (antibody, IgG4, V domains shown) VH: QVTLKESGPVLVKPTETLTLTCTVSGFSLNNARVGVSWIRQPPGKALEWLAHIFSNDEKSYSTSLKSRLTISKDTSKSQVVLTMTNMDPVDTATYYCARSVVTGGYYYEGMDVWGQGTTVTVSS VL: SYVLTQPPSVSVAPGQTARITCGGSNIGSESVHWYQQKPGQAPVLVVYEESDRPSGIPERFSGSNSGNTATLTISRVEAGDEADYYCQVWTGESDHVVFGGGTKLTVLG
4.11 nM | 421% | Ab0328 (antibody, IgG4, V domains shown) VH: QVTLKESGPVLVKPTETLTLTCTVSGFSLNNARVGVSWIRQPPGKALEWLAHIFSNDEKSYSTSLKSRLTISKDTSKSQVVLTMTNMDPVDTATYYCARSVVTGGYYYEGMDVWGQGTTVTVSS VL: SYVLTQPPSVSVAPGQTARITCGGSNIGSESVHWYQQKPGQAPVLVVYYASDRPSGIPERFSGSNSGNTATLTISRVEAGDEADYYCQVWAGSSDHVVFGGGTKLTVLG
0.34 nM | 775% | Ab0342 (antibody, IgG4, V domains shown) VH: QVTLKESGPVLVKPTETLTLTCTVSGFSLNNARVGVSWIRQPPGKALEWLAHIFSNDEKSYSTSLKSRLTISKDTSKSQVVLTMTNMDPVDTATYYCARSVVTGGYYYEGMDVWGQGTTVTVSS VL: SYVLTQPPSVSVAPGQTARITCGGSNIGSESVHWYQQKPGQAPVLVVYAASDRPSGIPERFSGSNSGNTATLTISRVEAGDEADYYCQVWAGESDHVVFGGGTKLTVLG
2.25 nM | 532% | Ab0346 (antibody, IgG4, V domains shown) VH: QVTLKESGPVLVKPTETLTLTCTVSGFSLNNARVGVSWIRQPPGKALEWLAHIFSNDEKSYSTSLKSRLTISKDTSKSQVVLTMTNMDPVDTATYYCARSVVTGGYYYEGMDVWGQGTTVTVSS VL: SYVLTQPPSVSVAPGQTARITCGGSNIGSESVHWYQQKPGQAPVLVVYAHSDRPSGIPERFSGSNSGNTATLTISRVEAGDEADYYCQVWAGSSDHVVFGGGTKLTVLG
1.02 nM | 718% | Ab0334 (antibody, IgG4, V domains shown) VH: QVTLKESGPVLVKPTETLTLTCTVSGFSLNNARVGVSWIRQPPGKALEWLAHIFSNDEKSYSTSLKSRLTISKDTSKSQVVLTMTNMDPVDTATYYCARSVVTGGYYYEGMDVWGQGTTVTVSS VL: SYVLTQPPSVSVAPGQTARITCGGSNIGSESVHWYQQKPGQAPVLVVYSASDRPSGIPERFSGSNSGNTATLTISRVEAGDEADYYCQVWAGSSDHVVFGGGTKLTVLG
1.37 nM | 482% | Ab0343 (antibody, IgG4, V domains shown) VH: QVTLKESGPVLVKPTETLTLTCTVSGFSLNNARVGVSWIRQPPGKALEWLAHIFSNDEKSYSTSLKSRLTISKDTSKSQVVLTMTNMDPVDTATYYCARSVVTGGYYYEGMDVWGQGTTVTVSS VL: SYVLTQPPSVSVAPGQTARITCGGSNIGSESVHWYQQKPGQAPVLVVYAASDRPSGIPERFSGSNSGNTATLTISRVEAGDEADYYCQVWAGSSDHVVFGGGTKLTVLG
1.4 nM | 528% | Ab0341 (antibody, IgG4, V domains shown) VH: QVTLKESGPVLVKPTETLTLTCTVSGFSLNNARVGVSWIRQPPGKALEWLAHIFSNDEKSYSTSLKSRLTISKDTSKSQVVLTMTNMDPVDTATYYCARSVVTGGYYYEGMDVWGQGTTVTVSS VL: SYVLTQPPSVSVAPGQTARITCGGSNIGSESVHWYQQKPGQAPVLVVYAYSDRPSGIPERFSGSNSGNTATLTISRVEAGDEADYYCQVWAGSSDHVVFGGGTKLTVLG
2.16 nM | 545% | Ab0339 (antibody, IgG4, V domains shown) VH: QVTLKESGPVLVKPTETLTLTCTVSGFSLNNARVGVSWIRQPPGKALEWLAHIFSNDEKSYSTSLKSRLTISKDTSKSQVVLTMTNMDPVDTATYYCARSVVTGGYYYEGMDVWGQGTTVTVSS VL: SYVLTQPPSVSVAPGQTARITCGGSNIGSESVHWYQQKPGQAPVLVVYAESDRPSGIPERFSGSNSGNTATLTISRVEAGDEADYYCQVWAGSSDHVVFGGGTKLTVLG
5.35 nM | 620% | Ab0356 (antibody, IgG4, V domains shown) VH: QVTLKESGPVLVKPTETLTLTCTVSGFSLNNARVGVSWIRQPPGKALEWLAHIFSNDEKSYSTSLKSRLTISKDTSKSQVVLTMTNMDPVDTATYYCARSVVTGGYYYEGMDVWGQGTTVTVSS VL: SYVLTQPPSVSVAPGQTARITCGGSNIGSESVHWYQQKPGQAPVLVVYEASDRPSGIPERFSGSNSGNTATLTISRVEAGDEADYYCQVWAGSSDHVVFGGGTKLTVLG
4.59 nM | 443% | Ab0329 (antibody, IgG4, V domains shown) VH: QVTLKESGPVLVKPTETLTLTCTVSGFSLNNARVGVSWIRQPPGKALEWLAHIFSNDEKSYSTSLKSRLTISKDTSKSQVVLTMTNMDPVDTATYYCARSVVTGGYYYEGMDVWGQGTTVTVSS VL: SYVLTQPPSVSVAPGQTARITCGGSNIGSESVHWYQQKPGQAPVLVVYYSSDRPSGIPERFSGSNSGNTATLTISRVEAGDEADYYCQVWAGSSDHVVFGGGTKLTVLG
2.91 nM | 576% | Ab0336 (antibody, IgG4, V domains shown) VH: QVTLKESGPVLVKPTETLTLTCTVSGFSLNNARVGVSWIRQPPGKALEWLAHIFSNDEKSYSTSLKSRLTISKDTSKSQVVLTMTNMDPVDTATYYCARSVVTGGYYYEGMDVWGQGTTVTVSS VL: SYVLTQPPSVSVAPGQTARITCGGSNIGSESVHWYQQKPGQAPVLVVYSHSDRPSGIPERFSGSNSGNTATLTISRVEAGDEADYYCQVWAGSSDHVVFGGGTKLTVLG
0.24 nM | 695% | Ab0347 (antibody, IgG4, V domains shown) VH: QVTLKESGPVLVKPTETLTLTCTVSGFSLNNARVGVSWIRQPPGKALEWLAHIFSNDEKSYSTSLKSRLTISKDTSKSQVVLTMTNMDPVDTATYYCARSVVTGGYYYEGMDVWGQGTTVTVSS VL: SYVLTQPPSVSVAPGQTARITCGGSNIGSESVHWYQQKPGQAPVLVVYASSDRPSGIPERFSGSNSGNTATLTISRVEAGDEADYYCQVWAGSSDHVVFGGGTKLTVLG
> 100 nM | – | Ab0405 (antibody, IgG4, V domains shown) VH: QVTLKESGPVLVKPTETLTLTCTVSGFSLNNARVGVSWIRQPPGKALEWLASIWSNDEKSYSTSLKSRLTISKDTSKSQVVLTMTNMDPVDTATYYCARSVVTGGYYYEGMDVWGQGTTVTVSS VL: SYVLTQPPSVSVAPGQTARITCGGNNIGSESVHWYQQKPGQAPVLVVDDSDRPSGIPERFSGSNSGNTATLTISRVEAGDEADYYCQVFDGNSTHVVFGGGTKLTVLG
> 100 nM | – | Ab0408 (antibody, IgG4, V domains shown) VH: QVTLKESGPVLVKPTETLTLTCTVSGFSLNNARVGVSWIRQPPGKALEWLAWIFSNDEKSYSTSLKSRLTISKDTSKSQVVLTMTNMDPVDTATYYCARSVVTGGYYYEGMDVWGQGTTVTVSS VL: SYVLTQPPSVSVAPGQTARITCGGNNIGSESVHWYQQKPGQAPVLVVDDSDRPSGIPERFSGSNSGNTATLTISRVEAGDEADYYCQVFDGNSTHVVFGGGTKLTVLG
> 100 nM | – | Ab0410 (antibody, IgG4, V domains shown) VH: QVTLKESGPVLVKPTETLTLTCTVSGFSLNNARVGVSWIRQPPGKALEWLAHIFSNDEKSYSTSLKSRLTISKDTSKSQVVLTMTNMDPVDTATYYCARSVVTGGYYYEGMDVWGQGTTVTVSS VL: SYVLTQPPSVSVAPGQTARITCGGNNIGSESVHWYQQKPGQAPVLVVDDSDRPSGIPERFSGSNSGNTATLTISRVEAGDEADYYCQVYDGNSSHVVFGGGTKLTVLG
> 100 nM | – | Ab0406 (antibody, IgG4, V domains shown) VH: QVTLKESGPVLVKPTETLTLTCTVSGFSLNNARVGVSWIRQPPGKALEWLASIWSNDEKSYSTSLKSRLTISKDTSKSQVVLTMTNMDPVDTATYYCARSVVTGGYYYEGMDVWGQGTTVTVSS VL: CYVLTQPPSVSVAPGQTARITCGGNNIGSESVHWYQQKPGQAPVLVVDDSDRPSGIPERFSGSNSGNTATLTISRVEAGDEADYYCQVFDGNCTHVVFGGGTKLTVLG
0.04 nM | 1090% | Ab0331 (antibody, human IgG4 S228P, lambda) heavy: not shown light: SYVLTQPPSVSVAPGQTARITCGGSNIGSESVHWYQQKPGQAPVLVVYSESDRPSGIPERFSGSNSGNTATLTISRVEAGDEADYYCQVWEGESDHVVFGGGTKLTVLGQPKANPTVTLFPPSSEELQANKATLVCLISDFYPGAVTVAWKADGSPVKAGVETTKPSKQSNNKYAASSYLSLTPEQWKSHRSYSCQVTHEGSTVEKTVAPTECS
0.04 nM | 1220% | Ab0335 (antibody, human IgG4 S228P, lambda) heavy: not shown light: SYVLTQPPSVSVAPGQTARITCGGSNIGSESVHWYQQKPGQAPVLVVYSASDRPSGIPERFSGSNSGNTATLTISRVEAGDEADYYCQVWEGESDHVVFGGGTKLTVLGQPKANPTVTLFPPSSEELQANKATLVCLISDFYPGAVTVAWKADGSPVKAGVETTKPSKQSNNKYAASSYLSLTPEQWKSHRSYSCQVTHEGSTVEKTVAPTECS
0.03 nM | 1040% | Ab0351 (antibody, human IgG4 S228P, lambda) heavy: not shown light: SYVLTQPPSVSVAPGQTARITCGGSNIGSESVHWYQQKPGQAPVLVVYEESDRPSGIPERFSGSNSGNTATLTISRVEAGDEADYYCQVWEGESDHVVFGGGTKLTVLGQPKANPTVTLFPPSSEELQANKATLVCLISDFYPGAVTVAWKADGSPVKAGVETTKPSKQSNNKYAASSYLSLTPEQWKSHRSYSCQVTHEGSTVEKTVAPTECS
